Reference: patent US20220119507A1 (OHEALTH BIOPHARMACEUTICAL SUZHOU, published 2022)

How the values were obtained:
[1] = molecular target: T1, fragment of PTX3 recombinant protein listed as SEQ ID NO:9 (human); assay: hybridoma screening
T1 peptide: LFSYGTKRN

[2] = molecular target: T2, RI37, fragment of PTX3 recombinant protein listed as SEQ ID NO:12 (200th to 236th amino acid residues) (human); assay: hybridoma screening
T2 peptide: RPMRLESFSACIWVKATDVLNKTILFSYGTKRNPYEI

[3] = molecular target: T3, fragment of PTX3 recombinant protein listed as SEQ ID NO:6 (human); assay: hybridoma screening
T3 peptide: ATDVLNKTI

[4] = molecular target: T4, fragment of PTX3 recombinant protein listed as SEQ ID NO:1 (human); assay: hybridoma screening
T4 peptide: RPMRLESFS

[5] = molecular target: T5, fragment of PTX3 recombinant protein listed as SEQ ID NO:10 (human); assay: hybridoma screening
T5 peptide: YGTKRNPYEI

[6] = molecular target: T6, amino acid sequence listed as SEQ ID NO:11 (203th to 217th amino acid residues of PTX3 recombinant protein) (human); assay: hybridoma screening
T6 peptide: RLESFSACIWVKATD

[7] = molecular target: T7, fragment of PTX3 recombinant protein listed as SEQ ID NO:2 (human); assay: hybridoma screening
T7 peptide: RLESFSACI

[8] = molecular target: T8, fragment of PTX3 recombinant protein listed as SEQ ID NO:8 (human); assay: hybridoma screening
T8 peptide: KTILFSYGT

[9] = molecular target: T9, fragment of PTX3 recombinant protein listed as SEQ ID NO:7 (human); assay: hybridoma screening
T9 peptide: VLNKTILFS

[10] = molecular target: T10, fragment of PTX3 recombinant protein listed as SEQ ID NO:5 (human); assay: ELISA on coated fragments SEQ ID NOs:1 to 10 (FIG. 4)
T10 peptide: WVKATDVLN

[11] = molecular target: T11, fragment of PTX3 recombinant protein listed as SEQ ID NO:3 (human); assay: as above
T11 peptide: SFSACIWVK

[12] = molecular target: T12, fragment of PTX3 recombinant protein listed as SEQ ID NO:4 (human); assay: as above
T12 peptide: ACIWVKATD

[13] = molecular target: PTX3 recombinant protein (undenatured amino acid sequence listed as SEQ ID NO:14) (human, UniProt P26022 19-381); assay: ELISA, PTX3 (SEQ ID NO:14) coated at 10 ug/mL, antibody 0.01 to 1000 ng/mL (FIG. 2)
Procedure: Firstly, 10 μg/mL of PTX3 recombinant protein (representing a undenatured amino acid sequence listed as SEQ ID NO:14, dissolved in pH 7.2 PBS) was coated onto each well of a 96-well cell culture plate (Product No. 9018, Corning Costar), and reacted at 4° C. overnight. Next, the blocking solution (containing 3% BSA in PBS) was added into wells, and blocked for 1 hour under room temperature (i.e. 4° C. to 40° C.). After removing the blocking solution, each well was rinsed with PBS, and then reacted with a primary antibody for 1 hour under room temperature (i.e. 4° C. to 40° C.), in which the primary antibody was PTX3 mAb of EXAMPLE 1 serially diluted in a concentration range of 0.01 ng/mL to 1000 ng/mL. And then, each well was rinsed several times with PBST (i.e. PBS with Tween 20) for removing unconjugated PTX3 mAb, and reacted with secondary antibody under room temperature (i.e. 4° C. to 40° C.), in which the secondary antibody was anti-mouse IgG-HRP. Afterward, TMB was added into each well for reaction over a time period, and then added with 0.1 M of H₂SO₄ solution for 10 minutes to stop the reaction. Subsequently, the absorbance at 450 nm of each well was measured by commercially available ELISA reader, and the results were shown in FIG. 2. Each value was obtained in quadruplicate. […]

Sequence of PTX3 recombinant protein (undenatured amino acid sequence listed as SEQ ID NO:14) (P26022 19-381 limits assumed): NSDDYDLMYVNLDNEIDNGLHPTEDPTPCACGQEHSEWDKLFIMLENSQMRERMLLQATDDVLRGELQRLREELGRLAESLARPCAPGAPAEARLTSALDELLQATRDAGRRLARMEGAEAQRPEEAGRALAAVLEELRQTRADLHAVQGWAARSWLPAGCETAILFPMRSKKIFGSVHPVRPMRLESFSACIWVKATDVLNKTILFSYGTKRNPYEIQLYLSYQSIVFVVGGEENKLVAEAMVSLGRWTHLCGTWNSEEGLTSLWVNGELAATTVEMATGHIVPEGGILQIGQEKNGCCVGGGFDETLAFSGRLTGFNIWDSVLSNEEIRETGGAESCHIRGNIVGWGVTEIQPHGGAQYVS

binding result [1]: binds
binding result [2]: binds
binding result [3]: binds
binding result [4]: binds
binding result [5]: binds
binding result [6]: binds
binding result [7]: binds
binding result [8]: binds
binding result [9]: binds
binding result [10]: binds
binding result [11]: binds
binding result [12]: binds
Kd [13]: 85 pM
B1: PTX3 monoclonal antibody of EXAMPLE 1 (antibody, V domains shown)
VH: EVQLQQSGAELVKPGASVKLSCTASDFNIKHTYLHWVLQRPEQGLEWIGRIDPANGDTKYDPKFQGKATITADTSSNTAYLHLSSLTSEDTAVYYCARVTTVVGFDYWGQGTTLTVSS
VL: QIVLTQSPAIMSTSLGERVTMTCTASSSVISTYLNWYQQKPGSSPKLWIYSTSNLASGVPARFSGSGSGTSYSLTISSMEAEDAATYFCHQFQRSPLTFGAGTKLELKR
notes: also called PTX3 mAb
